How the values were obtained:
[1] = target: XRCC1pSpT-9 none (pSer518; pThr519) (UniProt P18887); assay: 1D 31P NMR pH titration of the free phosphopeptide (600 MHz); conditions: pH 4.0-8.5, 35°C, no added NaCl (50 mM sodium acetate, 50 mM sodium cacodylate)
[2] = target: XRCC4pSpT-12 none (pSer232; pThr233) (UniProt Q13426); assay: as above; conditions: pH 4.0-8.5, 35°C, no added NaCl (50 mM sodium acetate, 50 mM sodium cacodylate)
[3] = target: XRCC1 tetraphosphorylated peptide (Homo sapiens) (UniProt P18887); conditions: cited from earlier work
Chain of XRCC1 tetraphosphorylated peptide (Homo sapiens) (P18887 whole entry): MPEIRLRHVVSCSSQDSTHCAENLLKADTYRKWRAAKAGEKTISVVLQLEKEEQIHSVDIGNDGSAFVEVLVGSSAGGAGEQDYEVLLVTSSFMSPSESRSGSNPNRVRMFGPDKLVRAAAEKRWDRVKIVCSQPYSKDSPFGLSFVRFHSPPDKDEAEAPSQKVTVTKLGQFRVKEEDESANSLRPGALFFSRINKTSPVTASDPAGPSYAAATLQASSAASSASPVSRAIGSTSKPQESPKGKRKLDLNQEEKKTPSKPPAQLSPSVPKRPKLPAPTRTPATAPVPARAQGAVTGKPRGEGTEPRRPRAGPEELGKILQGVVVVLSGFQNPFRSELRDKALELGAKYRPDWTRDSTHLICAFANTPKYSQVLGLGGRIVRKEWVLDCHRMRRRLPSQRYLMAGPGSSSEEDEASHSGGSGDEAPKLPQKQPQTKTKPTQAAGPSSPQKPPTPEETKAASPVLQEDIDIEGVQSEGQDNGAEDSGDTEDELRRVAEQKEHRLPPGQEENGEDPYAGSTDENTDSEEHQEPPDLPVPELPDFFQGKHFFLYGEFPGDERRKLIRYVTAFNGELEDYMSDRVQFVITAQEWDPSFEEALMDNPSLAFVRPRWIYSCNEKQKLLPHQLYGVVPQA

XRCC1 (Homo sapiens) = XRCC1 (Homo sapiens) (UniProt P18887); assay: fluorescence; conditions: cited from earlier work
Chain of XRCC1 (Homo sapiens) (P18887 whole entry): as above

[4] = target: XRCC1pSpT-18 (unlabelled, NMR samples) none (pSer518; pThr519) (UniProt P18887); assay: 1H,15N-HSQC titration with 1H lineshape simulation (500 MHz); conditions: pH 7.4, 35°C, 150 mM NaCl, 25 mM HEPES, 25 mM MES
Chain of XRCC1pSpT-18 (unlabelled, NMR samples) none (pSer518; pThr519) (P18887 whole entry): as above

Chain of XRCC4pSpT-12 none (pSer232; pThr233) (Q13426 whole entry): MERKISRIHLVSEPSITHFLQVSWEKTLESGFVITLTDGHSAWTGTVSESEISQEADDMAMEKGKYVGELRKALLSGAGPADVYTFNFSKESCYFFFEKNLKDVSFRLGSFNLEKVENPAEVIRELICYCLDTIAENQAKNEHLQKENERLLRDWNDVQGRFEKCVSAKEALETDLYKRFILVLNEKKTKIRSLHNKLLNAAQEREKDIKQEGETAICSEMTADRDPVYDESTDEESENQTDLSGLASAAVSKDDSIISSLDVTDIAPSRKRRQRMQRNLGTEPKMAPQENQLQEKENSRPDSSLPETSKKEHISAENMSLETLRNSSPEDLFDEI
Chain of XRCC1pSpT-9 none (pSer518; pThr519) (P18887 whole entry): as the sequence (P18887 whole entry) above

## APLF FHA domain
[1]
  pK, pSer518 phosphate of XRCC1pSpT-9: 6.56 pH units
  pK, pThr519 phosphate of XRCC1pSpT-9: 6.86 pH units
[2]
  pK, pSer232 phosphate of XRCC4pSpT-12: 6.9 pH units
  pK, pThr233 phosphate of XRCC4pSpT-12: 7.22 pH units

## PNKP FHA (from UniProt Q96T60)
[3]
  Kd: 140 nM
XRCC1 (Homo sapiens)
  Kd: 3.5 nM

## U-[15N] APLF FHA domain
[4]
  τB (lifetime of the protein-peptide complex): 0.9 ms

— article PMC5716189, “Characterization of the APLF FHA–XRCC1 phosphopeptide interaction and its structural and functional implications” (Nucleic Acids Research, 2017)
